These results are taken from FireProtDB (doi:10.1002/prot.340080106).

The conditions of the data set: Bos taurus; pH 7; 25 °C; Urea; CD; PIPES-KOH 20 mM; reversible: yes; whole UniProt chain shown.

B1: Protein S100-G wild type, P02633 (protein)
chain: MSAKKSPEELKGIFEKYAAKEGDPNQLSKEELKLLLQTEFPSLLKGPSTLDELFEELDKNGDGEVSFEEFQVLVKKISQ
Consider B1, for which the “denaturant midpoint (higher = more stable)” value was determined as 5.3 M and the unfolding free energy turned out to be 0.29 kcal/mol.
